# Assay results published in US20180344829A1 (INNATE PHARMA, published 2018).
# T1: human Siglec-10 expressed on CHO cells (human, UniProt Q96LC7 17-697)
# T1 construct: NCBI NP_149121 is printed; also called huSiglec-10; Siglec-10 CHO transfectants
# T1 sequence: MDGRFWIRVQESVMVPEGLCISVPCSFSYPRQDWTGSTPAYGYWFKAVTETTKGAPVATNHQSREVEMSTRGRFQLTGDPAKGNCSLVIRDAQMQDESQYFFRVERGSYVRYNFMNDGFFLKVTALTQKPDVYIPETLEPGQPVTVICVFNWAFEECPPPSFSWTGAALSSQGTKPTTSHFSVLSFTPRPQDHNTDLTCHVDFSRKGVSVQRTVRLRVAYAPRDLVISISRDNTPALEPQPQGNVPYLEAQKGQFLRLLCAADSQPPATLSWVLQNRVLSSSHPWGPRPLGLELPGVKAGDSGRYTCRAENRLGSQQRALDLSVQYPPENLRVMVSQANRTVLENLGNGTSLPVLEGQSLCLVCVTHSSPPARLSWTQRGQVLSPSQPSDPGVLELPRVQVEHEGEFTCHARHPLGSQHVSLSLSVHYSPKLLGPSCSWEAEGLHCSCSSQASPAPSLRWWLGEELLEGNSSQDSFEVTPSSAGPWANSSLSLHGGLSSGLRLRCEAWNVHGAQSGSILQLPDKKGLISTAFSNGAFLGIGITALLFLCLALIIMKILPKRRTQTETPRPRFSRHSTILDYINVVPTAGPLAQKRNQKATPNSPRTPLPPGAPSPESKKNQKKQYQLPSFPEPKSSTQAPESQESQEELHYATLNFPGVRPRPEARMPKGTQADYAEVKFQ
# Key:
# [1] = target: T2, human Siglec-7 expressed on CHO cells (human, UniProt Q9Y286 19-467); experiment: flow cytometry on CHO transfectants
# T2 construct: NCBI NP_055200.1 is printed; also called Siglec-7 CHO transfectants
# Procedure: (§1) Cells expressing Siglec-3, -5, -6, -7, -8, -9, -11 and -12 were generated using the amino acid sequences and Genbank references for Siglec polypeptides shown below in Table 2. Anti-Siglec-10 antibodies are tested by flow cytometry for binding to the cells. Binding of antibodies on human Siglec-10 was tested by flow cytometry on CHO cells transfected with human Siglec-10, human Siglec-7 or human Siglec-11. Cells were incubated 1h in Staining Buffer (SB) with primary antibodies at 8 ug/ml, then were washed three times with SB. Secondary Goat F(ab′)2 Anti-Human IgG (Fc) PE (Beckman Coulter) was incubated for 30 min at 4° C., cells were washed twice with SB. […] The 6 antibodies bound human Siglec-10 CHO transfectants with high differential in binding affinity over the control Siglec-7 or Siglec-11 CHO transfectants (no or only low residual binding to Siglec-7 or Siglec-11). […] The EC₅₀ as determined by flow cytometry for binding for S10-A antibody to Siglec-10 expressing CHO cells was 0.1 μg/ml.
# [2] = target: T1, human Siglec-10 expressed on CHO cells; experiment: flow cytometry on Siglec-10 expressing CHO cells
# [3] = target: T1, human Siglec-10 expressed on CHO cells; experiment: flow cytometry on CHO transfectants, antibodies at 8 ug/ml
# Procedure: as §1
# T2 sequence (Q9Y286 19-467): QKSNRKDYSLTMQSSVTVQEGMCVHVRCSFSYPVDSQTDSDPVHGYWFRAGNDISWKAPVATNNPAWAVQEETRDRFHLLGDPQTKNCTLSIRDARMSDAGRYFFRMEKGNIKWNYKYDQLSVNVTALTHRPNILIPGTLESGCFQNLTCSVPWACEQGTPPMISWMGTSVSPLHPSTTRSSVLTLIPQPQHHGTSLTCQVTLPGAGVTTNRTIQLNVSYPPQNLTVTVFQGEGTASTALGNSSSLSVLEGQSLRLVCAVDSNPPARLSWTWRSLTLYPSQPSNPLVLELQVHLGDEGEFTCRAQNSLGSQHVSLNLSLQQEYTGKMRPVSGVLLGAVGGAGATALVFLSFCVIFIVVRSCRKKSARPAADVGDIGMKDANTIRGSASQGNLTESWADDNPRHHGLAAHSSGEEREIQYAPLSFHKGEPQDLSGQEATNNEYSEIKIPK
binding result [1],EC50 [2] [µg/mL],binding result [3],Binder
no binding (tested: 8 ug/ml),0.1,–,"antibody S10-A (antibody, human IgG1, V domains shown, also called CHS2-S10-A) VH: QIQLQQSGAELEKPGASVKMSCKASGYTFTSYWMHWVKQRPGQGLEWIGYINPDTDSTEYNQKFRDKATLTADKSSSTAYMQLSSLTSEDSAVYYCARPYYRYAGYAMDYWGQGTSVTVSS VL: DIKMTQSPSSMYASLGERVTITCKASQDINSYLSWFQQKPGKSPKTLIYRANRLVDGVPSRFSGSGSGQVYSLTISSLEYEDLGIYYCLQYDEFPWTFGGGTKLEIKR"
no binding (tested: 8 ug/ml),–,binds,"antibody S10-B (antibody, human IgG1, V domains shown, also called CHS2-S10-B) VH: QVQLKESGPGLVAPSQSLSITCTVSGFSLTDYDVNWVRQPPGKGLEWLGMIWGDGITDYNSALKSRLSISKDNSKSQVFLEMNSLQTDDTARYYCARGGIYYFGNTYGYWFFDVWGAGTTVTVSS VL: DIVMTQSPSSLAVSTGEKVTMSCKSSQSLLNSRTRKNYLAWYQQKPGQSPKLLIYWASTRESGVPDRFTGSGSGTDFTLTISSVQAEDLAVYYCKQSYNLRTFGGGTKLEIKR"
no binding (tested: 8 ug/ml),–,binds,"antibody S10-C (antibody, human IgG1, V domains shown, also called CHS2-S10-C) VH: QVQLKESGPGLVAPSQSLSITCTVSGFSLTDYDVNWVRQPPGKGLEWLGMIWGDGITDYNSALKSRLSISKDNSKSQVFLEMNSLQTDDTARYYCARGGIYYFGNTYGYWFFDVWGAGTTVTVSS VL: EILLTQSPSSLAVSTGEKVTMSCKSSQSLLNSRTRKNYLAWYQQKPGQSPKLLIYWASTRESGVPDRFTGSGSGTDFTLTISSVQAEDLAVYYCKQSYNLRTFGGGTKLEIKR"
